{"source": "paper doi:10.1101/2024.09.20.612365", "about": "“Preventing Inappropriate Signals Pre- and Post-Ligand Perception by a Toggle-Switch Mechanism of ERECTA” (bioRxiv, 2024)", "molecules": {"B1": {"name": "MBP-fused full-length ER cytoplasmic domain (MBP-ER_CD) (domain or fragment, Arabidopsis, UniProt Q42371 602-976, looked up)", "chain": "CRPHNPPPFLDGSLDKPVTYSTPKLVILHMNMALHVYEDIMRMTENLSEKYIIGHGASSTVYKCVLKNCKPVAIKRLYSHNPQSMKQFETELEMLSSIKHRNLVSLQAYSLSHLGSLLFYDYLENGSLWDLLHGPTKKKTLDWDTRLKIAYGAAQGLAYLHHDCSPRIIHRDVKSSNILLDKDLEARLTDFGIAKSLCVSKSHTSTYVMGTIGYIDPEYARTSRLTEKSDVYSYGIVLLELLTRRKAVDDESNLHHLIMSKTGNNEVMEMADPDITSTCKDLGVVKKVFQLALLCTKRQPNDRPTMHQVTRVLGSFMLSEQPPAATDTSATLAGSCYVDEYANLKTPHSVNCSSMSASDAQLFLRFGQVISQNSE", "notes": "ERECTA (ER) LRR receptor kinase, Arabidopsis; full-length cytoplasmic domain (juxtamembrane domain, kinase domain, C-terminal tail); source: expressed and purified (recombinantly purified)"}, "B2": {"name": "GST-BKI1 (BRI1 KINASE INHIBITOR 1) (natural protein, Arabidopsis, UniProt Q9FMZ0 1-337, looked up)", "chain": "METNLQQVKNSSQTFSEKQNPKQEASPSPISSTCSSPSHDFSFTISLQPLSSSSKHISPTLRSPSKTTSSYQQTDPFAVDLSPADEIFFHGHLLPLHLLSHLPVSPRTSTGSYNDGFTLPVKDILPDQPTNNNNNTENAITNISTEAKDDNTEDKAEGEIRVKTKPIKSFSLFGLSKWRKGFESNEREQEQQQQKIKKPMSLDLSHAVKKYIRMLFQKRGNGTQFWNRRQTSSYSFSSSLMGPNGNSKTMINGSYNKRDLIRGRRGELFSAPASMRTSPTNSGHLRVSTAGLSSSSGSTSSSSSDSTMEELQAAIQAAIAHCKNSSAVDRDDKVKDS", "notes": "source: recombinantly purified"}, "B3": {"name": "MBP-ER_CD_(T/S8E), phosphomimetic version (domain or fragment, Arabidopsis, UniProt Q42371 602-976, looked up)", "chain": "B1 chain with T346E, S349E, S353E, S354E, S356E, S358E, S371E, S374E", "notes": "ERECTA (ER), Arabidopsis; source: recombinantly purified"}, "B4": {"name": "GST-PUB30 (plant U-box E3 ligase PUB30) (enzyme)", "chain": "MPMFQPLKRDGLIGFEGGGDGQVLDLDTAVKDGVLGGVNGGGVGVVDEKLDLKKMIKELDLQDIPSVFICPISLEPMQDPVTLCTGQTYERLNIHKWFNLGHLTCPTTMQELWDDTVTPNKTLHHLIYTWFSQKYVLMKKRSEDVQGRAIEILGTLKKAKGQARVHALSELKQIVIAHLMARKTVVEEGGVSVISSLLGPFTSHAVGSEVVAILVSLDLDSDSKSGLMQPAKVSLIVDMLNDGSNETKINCARLIRGLVEEKGFRAELVSSHSLLVGLMRLVKDKRHRNGVSPALRLLKPISVHKQVRSLMVSIGAVPQLVDILPSLDPECLELALFVLDALCTDVEGRVAVKDSANTIPYTVRVLMRVSENCTNYALSILWSVCKLAPEECSPLAVEVGLAAKLLLVIQSGCDAALKQRSAELLKLCSLHYSDTMFISKCKLTRTIQ"}}, "key": {"[1]": {"molecular_target": "T1, GST-PUB30 (plant U-box E3 ligase PUB30) (Arabidopsis, UniProt Q058P4 1-448)", "T1 construct": "U-box E3 ubiquitin ligase PUB30, Arabidopsis; source: recombinantly purified", "T1 sequence (looked up)": "B4 chain", "assay": "BLI; recombinantly purified GST-BKI1 or GST-PUB30 and MBP-ER_CD variants at seven concentrations (156.25, 312.5, 625, 1,250, 2,500, 5,000 and 10,000 nM); representative of three independent experiments"}, "[2]": {"molecular_target": "GST-BKI1 (BRI1 KINASE INHIBITOR 1) (Arabidopsis) (UniProt Q9FMZ0)", "assay": "BLI; recombinantly purified GST-BKI1 or GST-PUB30 and MBP-ER_CD variants at seven concentrations (156.25, 312.5, 625, 1,250, 2,500, 5,000 and 10,000 nM); representative of three independent experiments"}, "[3]": {"molecular_target": "T2, MBP-ER_CD_(T/S8A), phosphonull version (Arabidopsis, UniProt Q42371 602-976, Thr947 (T/S8A) | Ser950 (T/S8A) | Ser954 (T/S8A) | Ser955 (T/S8A) | Ser957 …)", "T2 sequence": "B1 chain with T346A, S349A, S353A, S354A, S356A, S358A, S371A, S374A", "assay": "BLI"}, "[4]": {"molecular_target": "T3, MBP-ER_CD_(T/S8E), phosphomimetic version (Arabidopsis, UniProt Q42371 602-976, Thr947 (T/S8E) | Ser950 (T/S8E) | Ser954 (T/S8E) | Ser955 (T/S8E) | Ser957 …)", "T3 sequence": "B1 chain with T346E, S349E, S353E, S354E, S356E, S358E, S371E, S374E", "assay": "BLI"}, "[5]": {"molecular_target": "T4, MBP-ER_CD_(T/S8A), phosphonull version (Arabidopsis, UniProt Q42371 602-976, Thr947 (T/S8A) | Ser950 (T/S8A) | Ser954 (T/S8A) | Ser955 (T/S8A) | Ser957 …)", "T4 construct": "ERECTA (ER), Arabidopsis; The eight sites: six detected (Thr947, Ser950, Ser954, Ser955, Ser957, Ser972); source: recombinantly purified", "T4 sequence (looked up)": "B1 chain with T346A, S349A, S353A, S354A, S356A, S358A, S371A, S374A", "assay": "BLI; recombinantly purified GST-BKI1 or GST-PUB30 and MBP-ER_CD variants at seven concentrations (156.25, 312.5, 625, 1,250, 2,500, 5,000 and 10,000 nM); representative of three independent experiments", "details": "both partners purified"}, "[6]": {"molecular_target": "B1", "assay": "BLI; recombinantly purified GST-BKI1 or GST-PUB30 and MBP-ER_CD variants at seven concentrations (156.25, 312.5, 625, 1,250, 2,500, 5,000 and 10,000 nM); representative of three independent experiments", "details": "both partners purified"}}, "note": "Substitutions are numbered along the chain they refer to. Names and notes keep the numbering of the source. Read-outs that look alike come from different tables or passages of the source."}
{"molecule": "MBP-ER_CD_(ΔCTα-Helix) (domain or fragment)", "values": [{"measurement": "Kd", "setting": "[1]", "result": 0.805, "unit": "µM"}, {"measurement": "Kd", "setting": "[2]", "result": 47.7, "unit": "µM"}]}
{"molecule": "B1", "values": [{"measurement": "Kd", "setting": "[1]; both partners purified", "result": "0.393 ± 0.048", "unit": "µM"}]}
{"molecule": "B2", "values": [{"measurement": "Kd", "setting": "[3]", "result": 3.8, "unit": "µM"}, {"measurement": "Kd", "setting": "[4]", "result": 18, "unit": "µM"}, {"measurement": "binding result", "setting": "[5]", "result": "binds"}, {"measurement": "Kd", "setting": "[6]", "result": "3.7 ± 0.7", "unit": "µM"}]}
{"molecule": "B3", "values": [{"measurement": "binding result", "setting": "[1]; both partners purified", "result": "binds"}]}
{"molecule": "B4", "values": [{"measurement": "Kd", "setting": "[3]", "result": 9.5, "unit": "µM"}, {"measurement": "Kd", "setting": "[4]", "result": 0.194, "unit": "µM"}]}
